Measured values reported in the nanobody polyreactivity screen of Harvey et al. (2022).

Test: yeast display, Sf9 membrane polyspecificity reagent, FACS + sequencing; frameworks hold sequencing errors
Method in brief: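 Sorting gates, low and high (top ~1%), were placed on anti-HA fluorescence to track expression and on streptavidin fluorescence to track reagent binding. A clone's polyreactivity label is taken from the gate it came out of. The reagent was 10% biotinylated, detergent-solubilized Sf9 membrane, applied for 1 hour at 4 °C to galactose-induced yeast display cells.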

Sequence	polyreactivity (PSR sort gate)
QVQLVESGGGLVQAGGSLRISCAASGSTFGRNAMGWYSQAPGKERELVAAISSGGSTSYADSVKGRFTISRDNAKYTVYLQMNSLKPEDTAVYYCAAHSVGSQYDYWGQGTQVTVSS	low polyreactivity
QVQLVESGGGLVQAGGSLRLSCAASGSIFDINAMGWYRQAPGKERELVAVITDSGSTYYADSVKGRFTISRDNAKNTVYLQMNSLKPEDTAVYYCAAESSLLFFLMDYWGQGTQVTVSS	low polyreactivity
QVQLVESGGGLVQAGGSLRLSCAASGRISPKNAMGWYRQAPGKERELVATIRKIGGRTYYADSVKGRFTISRDNAKNTVYLQMNSLKPEDTAVYYCATDFAQSYYPDRFDYWGQGTQVTVSS	low polyreactivity
QVQLVESGGGLVQAGGSLRLSCAASGSTFTQYAMGWYRQAPAKERELFAAISWGGGTTRYADSVKGRFTISRDNAKNTVYLQMNSLKPEDTAVYYCAKRVRTGSVGNFNYWGQGTQVTVSS	high polyreactivity
QVHLVESGGGLVQVGGSLRLSCAASGSIFRWYAMGWYRQAPGKERELVAAISSSVGRTYYADSVKGRFTISRDNAKNTVYLQMNSLKPEDTAVYYCAVRYSVVYGTYYYWGQGTKVTVSS	high polyreactivity
QVQLVESGGGLVQAGGSLRLSCAASGSTFAYNAMGWYIQAPGKERELVAAISWGDGITYYADSVKGRFSISRDYAKNTVYLQINILKPEDTAVITRDFGYWGQGTQVTVSS	low polyreactivity
QVQLVESGGGLVQAGGSLRLSCAASGSIFVRNTMGWYRQAPGKERELVATISSGGRTYYADSVKGRFTISRDNAKNTVYLQMNSLKPEDTAVYYCAAGYSYAQYSYPFLSFAFGYWGQGTQVTVSS	high polyreactivity
QVQLLESGGGLVQAGGSLRLSCAASGSTFYINTMGWSRQAPGKERELVAAISWTGGRTYYADSVKGRFTISRDNAKNTVYLQMHSLKPEDTAVYYCAAYYNIPDRRRVGYDYWGQGTQVTVSS	high polyreactivity
QVQLVESGGGLVQAGGILRLSCASSGRIFTRYAMGWYRPAPGKEREFVAAINYRGSSTYYADSVKGRFTISRDNAKNTVYLQMNSLKPEETAVDYCNTYGQTDTYWRYYYWGQGTQVTVSS	high polyreactivity
QVQLVESAGGLVQAGGSLRLICAASGRIFYLNAMGWYRQAPGKESELVAAINTSCGSTYADSVKWRFTISRDNAKNTVYLQMNSLKPEDTAVYYCNAYLAEVLPLGKGRLYDYWGQGTQVTVSS	low polyreactivity
QVQLQESGGGLVQACGSQRLSCAASGSICEGQDMGWYRRAPGKEREFVAGIAPGATTYYADSVKGRFTISRDNAKNTVYLQMNSLKPEDTAVYYCAARSVTETDHDSWGQGTQVTVSS	low polyreactivity
QVQLVESGGGLVQAGGSLRLSCAASGFTFKYNVMGWYIQAPGKERELVAAISSAGNTNYADSVKGRFTISRDNAKNTVYLQMNSLKPEDTAVYFCAKRRDTLYVGVEGYYWGQGTQVTVSS	high polyreactivity
QFQLVESGGGLVQAGGTLRLSCAASRRIFIHYAMGLSRQAPGKERELVSAISASGGTTNYADSVKGRFTISRDNAKNTVYLQLKSQKQEDTAVYYCAAEGYRSWRGLLSRYYYWGQGTQVTVSS	high polyreactivity
QVQLVESGGGLVQAGGSLRLSCAASGSTFAYNAMGWYRQAPGKERELVAAISSSGGSTSYADSVKARFTIARDNAKNTVNLQMNSLKPEDPAVYYCAADSYPAYLGFVGFDYWGQGTQVTVSS	low polyreactivity
QVQVVESGGGLVQAGGSLRLSCAGSGSIFYFYAMGWSRQAPGKARELVATITSGGRTYYADSVKGRFTISRDNAKNTVYLQMISLKPEDTAVYYCNSRPVSYRYSSYIFNYWGQGTQVTVSS	high polyreactivity
QVQLVESGGGLVQAGGSLRLSCAASGIIFPSYDMGWYRQAPGKERELVAAINSGDSTYYADSVKGRFTISRDNAKNTVYLQMNSLKPEDTAVYYCAANPGDLGGWYVPYDYWGQGTQVTVSS	low polyreactivity

Sequence	polyreactivity (PSR sort gate)
QVQLVESGGGLVQAGGSLRLSCAASGSIFDRYAMGWYRQAPGKERELVAAISRSGGSTYYADSVMGRFTISRDNAKNTVYLQMNSLKPEDTAVYYCAAYQHPGLRTSYEYWGQGTQVTVSS	low polyreactivity
QVQIVESGGGLVQAGRSLRLSCAASGSTFGSYAMGWYRQAPGKDRELVAAISASGGSTYYADSVKGRFTISRDNAKHTVYLQMNSLKPEDTAVYYCATVYYSARYTYWGQGTQVTVSS	high polyreactivity
QVQLVESGGGLVQAGGSLRLSCAASGSTFVANGMGWYRQAPGKERELVAVISRNGGTTYYADSVKGRFTISRDNAKNTVYLQMNSLKPEDTAVYYCNAKLPVFHYFWMDYWGQGTQVTVSS	high polyreactivity
QVQLVESGGGLVQAGGSLRLSCAASGSIFPYYAMGWYRQAPGKEWEFVAAISRRGGSTNYADSVKGRFTISRDTAKNTVYLQMNSLKPEDTAVYYCGKYTSYSRGYDYWGQGTQVTVSS	high polyreactivity
QVQLVESGGGLVQAGGSLRLSCAASGRIFDVYAMGWYRQAPGKERELVAAITWSGGRTYYADSVKGRFTISRDNAKNTVYLQLNSLKPEDTAVYYCAAEKPYVRGYLWTYDYWGQGTQVTVSS	low polyreactivity
QVQLVESWGGLVQAGGSLRLSCAASGRIFYDYAMGWYRQAPGKERELVAAISKGGGSTYYADSVKGRFTISRDNAKKTVYLQMNSLKAEDTAVYFCAASTSHTTDTRYDYWGQGTQVTVSS	low polyreactivity
QVQLVESGGGLVQAGGSLRLSCAASGSTFLTYAMGWYRQAPGKERELVASITSTGRTYADSVKGRFTISRDNAKNTVYLQMNSLKPEDTAVYYCNADVTAFRRSFLRKYYSYDSWGQGTQVTVSS	low polyreactivity
QVQLVESGGGLVQAGGSLRLSCAASGRTFIKYAMGWYRPAPGKERELVAAITHRGTNTYYADSVKGRFTISRDNAKYTVYLQMNSLKPEDTAVYYCAAAAPSYPSYDYWGQGTQVTVSS	low polyreactivity
QVQHVESRGGLVQAGGSLRLSCAASGFTFYLNAKGWYRQAPGKVRELVAAISYSDGSTYYADSVKGRFTISRDNAKNTVYLQMNSLIPEDTAVYYCAADTTDPGGAYQLMEYWGQGTQVTVSS	high polyreactivity
QVQLVESGGGLVQAGGSLRLSCASSGYIFAGNAMGWYRQAPGKERELVAVITRGGRTYYADSVKGRFTISRDNAKNTVYLQMNSLKPEDTAVYYCAARYPYRGWGQGTQVTVSS	high polyreactivity
QVQLVESGGGLVQAGGSLRLSCAASGSTFSGYAMGWYRQAPGKEMEFVATISISGGSTYYADSVKGRFTISRDNAKNTVYLQMNSLKPEDTAVYYCNADYYFSWGSIEDYWGQGTQVTVSS	low polyreactivity
QVQLVESGGGLVQAGGSLRLSCAASGRIFIRNAMGWYRQAPGKERELVAAISRSGGRTYYADSVKGRFTISRDNAKNTVYLQMNSLKQEDTAVYYCARTTPYFNVDCGGYDYWGQGTQVTVSS	high polyreactivity
QVQLVESGVGLVQAGGSLRLSCAASGLTFRPNAMGWYRQAPGKERELVASISFSGGSTYYADSVKGRFTISRDNAKNTVYLQMNSLKPEDTAVYYCAADVATTHELDYWGQGTQVTVSS	high polyreactivity
QFQLVESGGGLVQAGGSLRLSCAASARTFYRYAMGWYRQAPGKERELVASINRGGSTIYADSVKGRFSISRDNAKNTVYLHMNSLKPEDTAVFYCACYCYCYWGQGTQVTVSS	low polyreactivity
QVQLVESGGGLVQAGGSLRLSCAASGRIFNQYGMGWYRQAPGKERELVAAIRSGDSTNYADSVKGRFTISRDNAKNTVYLQRNSLKPEDTAVYYSARDRPGDYAGYDYWGQGTQVTVSS	low polyreactivity
QVQLVESGGGLVQAGGSLRLSCAASGSIFYINAMGWYRQAPGKERELVAAINRGGSTNYADSVKGRFTISRDNAKNTVYLQMYSLKPEDTAVYYCAAYIYKTYRYYYWGQGTQVTVSS	high polyreactivity
